Test results reported in patent publication US20230212268A1 (UNM RAINFOREST INNOVATIONS, published 2023).

Molecular target: T1, recombinant SUDV glycoprotein (SUDV (Sudan ebolavirus), UniProt Q7T9D9 33-650)
T1 sequence: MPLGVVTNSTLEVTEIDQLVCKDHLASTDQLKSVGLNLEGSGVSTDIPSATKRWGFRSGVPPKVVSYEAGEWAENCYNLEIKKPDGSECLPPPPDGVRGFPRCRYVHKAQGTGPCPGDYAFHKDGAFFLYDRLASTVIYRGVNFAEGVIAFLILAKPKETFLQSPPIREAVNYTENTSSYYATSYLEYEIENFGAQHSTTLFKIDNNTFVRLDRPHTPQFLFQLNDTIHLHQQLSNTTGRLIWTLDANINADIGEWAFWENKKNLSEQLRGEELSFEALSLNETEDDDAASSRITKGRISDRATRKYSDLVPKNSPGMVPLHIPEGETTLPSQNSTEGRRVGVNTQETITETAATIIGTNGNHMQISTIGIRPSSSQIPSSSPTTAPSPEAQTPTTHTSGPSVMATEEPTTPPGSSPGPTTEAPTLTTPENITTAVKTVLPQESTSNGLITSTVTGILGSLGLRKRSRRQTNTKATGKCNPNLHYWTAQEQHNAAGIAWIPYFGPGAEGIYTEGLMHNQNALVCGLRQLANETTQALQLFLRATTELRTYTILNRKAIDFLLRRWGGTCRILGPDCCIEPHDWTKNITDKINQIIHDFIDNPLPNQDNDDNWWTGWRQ
Assay: ELISA dose-response fit, reference scFv22-1

B1: EbovGPscFv4-2 (scFv)
scFv: MAWSHPQFEKTGSGGAELVKSGASVKLSCTASGFNIKDDYMHWVKQRPEQGLEWIGWIDPENGDTEYASKFQGKATITADTSSNTAYLQLSSLTSEDTAVYYCTTYYYGSAWFAYWGQGTLVTVSAGGGGSGGGGSGGGGSGGGGSASLSVSVGETVTITCRASGNIHNYLAWYQQKQGKSPQLLVYNAKTLADGVPSRFSGSGSGTQYSLKINNLQPEDFGSYYCQHFWSTPYTFGGGTKLEIKRADAAPTVSIFPPSSEQLTSGGASVVCFLNNFTHCQELQQDECS
- fold affinity against scFv22-1: ~2 fold
